We go through 16 sequences from the nanobody polyreactivity screen of Harvey et al. (2022).

This data set in a line: yeast display, Sf9 membrane polyspecificity reagent, FACS + sequencing; frameworks hold sequencing errors. An outline of the steps:
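Using colony PCR, genes from sorted yeast display clones were amplified, then sequenced on MiSeq at 2 × 250 and filtered by CDR length. The clones had been stained with 10% biotinylated, detergent-solubilized Sf9 membrane reagent for 1 hour at 4 °C and sorted by FACS into low and high (top ~1%) gates on anti-HA and streptavidin fluorescence. Polyreactivity labels come from the gate of origin.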
With “QVQLVESGGGVVQAGGSLRLSCAASGRIFRGYVMGWYRQAPRKERELVAAITWSGANTYYADSVKGRFTISRDNAMNTVYLQMNSLKPEDSAVYYCAATVSYWSTKEDDYWGLGTQVTVSS”, the “polyreactivity (PSR sort gate)” value is “low polyreactivity”.

“QVQLVESGGGVVQAGGSLRLSCAASGRIFVSNPMGWYRQAPGKERELVAAITSGGRTNYADSVKGRFTISRDNAKNTVYLQMNSLKPEDTAVYYCNARGYSSRGFRRYSTKYDYWGQGTQVTVSS”: the “polyreactivity (PSR sort gate)” value is listed as “high polyreactivity”.

On to “QVQLVESGGGVVQAGGSLRLSCAASGRTFSYYAMGWYRQSPGKERELVATISYSTGNTNYADSVKGRFTISRDNAKNTVYLQMNSLKPEDTAVYYCAADFSPFVGETYWKYDYWGQGTQVTVSS”, for which the “polyreactivity (PSR sort gate)” value is on record as “low polyreactivity”.

Consider “QVQLVESGGGVVQAGGSLRLSCAASGRTFWRYAMGWYRQAPGKERELVAAITSGGGSTYYADSVKGRFTISRDNAKNTVYLQMNSLKPEDTAVYYCNRAGRGSSFKGDYWGQGTQVTVSS”, for which the “polyreactivity (PSR sort gate)” value is “high polyreactivity”.

With “QVQLVESGGGVVQAGGSLRLSCAASGRTIDPKAMGWYRQAPGKERELVAAITRTGVRTYYADSVKGRFTISRDNAKNTVYLQLNILKPEYTAVYYCNRYGARSNDYWGQGTQVSVSS”, the “polyreactivity (PSR sort gate)” value is “low polyreactivity”.

For “QVQLVESGGGVVQAGGSLRLSCAASGRTIWSNAMGWYRQAPGKERELVAAISRTGGRTYYADSVKGRFTISRDNAKNTVYLQMNSLKREDTAVYYCATGSGVYDYWGQGTQLTVSS”, the “polyreactivity (PSR sort gate)” value is reported as “high polyreactivity”.

Take “QVQLVESGGGVVQAGGSLRLSCAASGSTAIYYTMGWYRQAPGKERELVAYADSVKGRFTISRDNAKTTVYLQMNSLKPEDTAVYSCAAPRTYYSELTSPYDYWGQGTQVTVSS”: the “polyreactivity (PSR sort gate)” value is recorded as “low polyreactivity”.

As to “QVQLVESGGGVVQAGGSLRLSCAASGSTFYINTMGWSRPAPGKDRELVAAISWTGGRTYYAASVKGRFTISRANAKNTVYLQMNSLKPEDTAVYYCAAYYNIPDRRRVGYDYWGQGTQVTVSS”, the “polyreactivity (PSR sort gate)” value was “high polyreactivity”.

As for “QVQLVESGGGVVQAGGSLRLSCAASGSTIYRYAMGWYRQAPGKEREFVPAITRTTARTYYADSVKGRFTFSRDNAKNTVYLQMNSLKPEDTAVYYCAADLYSWTWSGFRQYDSWGQGTQVTVSS”, the “polyreactivity (PSR sort gate)” value was “high polyreactivity”.

In the case of “QVQLVESGGGVVQAGGSLRLSCAASVRTFPGYAMGWYRQAPGKERELVAAISWSGTSTYYADSVKGRFTISRDYAKNTVYLQMNSLKPEYTAVYDCNKVYTYSAPYYYWGQGTQVTVSS”, the “polyreactivity (PSR sort gate)” value is “high polyreactivity”.

Regarding “QVQLVESGGGVVQAGGSLRLSCPASGSIFETYVMGWYRPAPGIERELVAAINSGGSTNYADSVKGRFTISRDNAKNTVYLQMNRLKPEDTAVYYCNADWFTPAQPWYRSFIRYDYWGQGTQVTVSS”, the “polyreactivity (PSR sort gate)” value is on record as “low polyreactivity”.

Regarding “QVQLVESGGGVVQAGGSLSLSCAASGNTFPVYAMGWYRQASAKERELVATITSGGSTNYADSVKGRFTISRDNAKNTVYLQMNSLKPEDTAVYYCARRAVYSKRRYDYWGQGTQVTVSS”, the “polyreactivity (PSR sort gate)” value is given as “low polyreactivity”.

On to “QVQLVESGGGVVQARGSRRLSCAASGRSYANAMGWYRQAPGKERELVAAITKNGGGTYYADSVKGRFTISRDNAKNTVYLQMNSLKPEDTAVYYCAASYSRWYYTAKQQEFDYWGQGTQVTVSS”, for which the “polyreactivity (PSR sort gate)” value is “high polyreactivity”.

As for “QVQLVESGGPLVQSGGSLRIICPASGSTFRYYSMGWYRQAPGKERELVAAISYGGGITNYADSVKGRLTISRDNAKNTVYLQMNSLKPEDTAVYYCAAYDRITRYDYWGQGTQVTVSS”, the “polyreactivity (PSR sort gate)” value was “high polyreactivity”.

Consider “QVQLVESGGRIVQAGGSLRLRCAASGRTLLRYAMGWSRQAPGKERELVAAISSSGGRTYYADSVKGRFTISRDNEKNTVYLQMNSLKPEDTAVYYCAAKSSYVGHDYWGQGTQVTVSS”, for which the “polyreactivity (PSR sort gate)” value is listed as “high polyreactivity”.

As for “QVQLVESGGRIVQAGGSLRLSCAASGRLFDRYAMGWYRQAPGQERELVAAISWSAGSTYYADSVKGRFTISRDNAKNTVYLQMNSLKPEDTAVYYCAVPARGTFLLRDGGRAEFDYWGQGTQVTVSS”, the “polyreactivity (PSR sort gate)” value is “low polyreactivity”.
